What was measured:
[1] = molecular target: T1, human B7RP1-Fc fusion protein (human, UniProt O75144 19-256, limits assumed); experiment: Biacore Fc column of Table 4
T1 construct: also called hB7RP-1-Fc; hB7RP1Fc; not shown: Fc part
T1 sequence (looked up): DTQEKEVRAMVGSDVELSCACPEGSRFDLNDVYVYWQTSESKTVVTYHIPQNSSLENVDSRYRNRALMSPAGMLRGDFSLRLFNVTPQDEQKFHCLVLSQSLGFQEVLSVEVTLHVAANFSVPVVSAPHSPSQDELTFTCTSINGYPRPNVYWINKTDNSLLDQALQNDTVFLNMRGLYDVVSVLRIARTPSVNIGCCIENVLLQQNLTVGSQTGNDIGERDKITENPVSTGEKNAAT

[2] = molecular target: T2, human B7RP-1 Ig2 (IgC-like) domain fused to chicken avidin (human; chicken, UniProt O75144 120-246); experiment: avidin fusion on biotin-coated beads, fluorescently labeled ICOS-Fc, flow cytometry
T2 construct: Order of the parts not certain ('N-terminal, in-frame fusions with chicken avidin'); also called Ig2 domain; membrane-proximal Ig2 domain; not shown: chicken avidin
T2 sequence: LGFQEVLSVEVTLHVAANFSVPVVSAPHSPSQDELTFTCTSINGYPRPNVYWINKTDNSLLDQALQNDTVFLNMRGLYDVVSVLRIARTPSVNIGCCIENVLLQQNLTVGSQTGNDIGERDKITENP
Protocol: (§1) Experiments were conducted to identify the region on B7RP-1 to which the 16H/16Hg and 5D monoclonal antibodies bind. To do this a novel Fluorescence-Activated Cell Sorter (FACS) binding assay was developed. The human extracellular domain (ECD) of B7RP1 (SEQ ID NO: 66) as well as truncated forms of B7RP-1 containing either the Ig1 (IgV-like; SEQ ID NO: 67) or the Ig2 (IgC-like; SEQ ID NO: 68) were expressed as N-terminal, in-frame fusions with chicken avidin.
(§2) Expression vectors containing genes encoding these fusion proteins were individually transiently transfected into 293T cells and the conditioned media from these cell lines were used as the source of fusion protein. The avidin-tag was used to capture the B7R-1 fusion proteins from solution using a biotin-coated bead. Fusion proteins were incubated with either fluorescently-labeled 16H or 5D mAbs or a fluorescently-labeled ICOS-Fc fusion protein, and incubated with biotin-coated beads The beads were recovered and analyzed using flow cytometry on a Becton-Dickinson Bioscience FACScan (BD, Franklin Lakes, N.J.). […] Thus, the ICOS, 16H, and 5D binding regions on B7RP-1 were located in the Ig1 domain

[3] = molecular target: T3, full-length human B7RP-1 on cells (human, UniProt O75144 19-302); experiment: cell-based or functional assay
T3 sequence (looked up): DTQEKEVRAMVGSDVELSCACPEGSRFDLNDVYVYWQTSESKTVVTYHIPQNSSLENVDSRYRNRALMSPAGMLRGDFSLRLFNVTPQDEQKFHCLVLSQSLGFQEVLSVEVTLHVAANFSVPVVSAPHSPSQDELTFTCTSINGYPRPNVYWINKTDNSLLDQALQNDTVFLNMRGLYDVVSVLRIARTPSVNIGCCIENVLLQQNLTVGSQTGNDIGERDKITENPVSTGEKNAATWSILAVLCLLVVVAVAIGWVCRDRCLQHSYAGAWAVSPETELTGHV

[4] = molecular target: T1, human B7RP1-Fc fusion protein; experiment: Biacore solution equilibrium: mAb pre-incubated with B7RP1-Fc, free mAb read on immobilized B7RP1-Fc
Protocol: (§3) A fixed concentration of mAb was then incubated with varying concentrations of B7RP-1 or B7RP1-Fc for at least eight hours at room temperature to allow them to reach equilibrium. The samples were then injected over the B7RP1-Fc surface, and the binding signal observed represented free antibody remaining in solution at equilibrium.

[5] = molecular target: T1, human B7RP1-Fc fusion protein; experiment: Biacore Fc column of Table 4 (same value as Table 3)
Protocol: as §3

[6] = molecular target: T1, human B7RP1-Fc fusion protein; experiment: cell-based or functional assay
[7] = molecular target: T4, soluble recombinant human B7RP-1 (human, UniProt O75144 19-256, limits assumed); experiment: Biacore mono column of Table 4 (same value as Table 3)
T4 construct: also called hB7RP-1; soluble B7RP-1
T4 sequence (looked up): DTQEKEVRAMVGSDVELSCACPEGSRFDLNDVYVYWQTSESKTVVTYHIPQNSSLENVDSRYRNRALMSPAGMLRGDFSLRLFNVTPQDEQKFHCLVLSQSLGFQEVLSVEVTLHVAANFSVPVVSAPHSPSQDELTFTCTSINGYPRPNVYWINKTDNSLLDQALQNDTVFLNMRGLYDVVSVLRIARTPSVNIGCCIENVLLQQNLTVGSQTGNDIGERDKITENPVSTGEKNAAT
Protocol: as §3

[8] = molecular target: T2, human B7RP-1 Ig2 (IgC-like) domain …; experiment: avidin fusion on biotin-coated beads, fluorescently labeled 16H, flow cytometry
Protocol: as §2

[9] = molecular target: T4, soluble recombinant human B7RP-1; experiment: Biacore solution equilibrium: mAb pre-incubated with soluble B7RP-1, free mAb read on immobilized B7RP1-Fc
Protocol: as §3

[10] = molecular target: T4, soluble recombinant human B7RP-1; experiment: KinExA, dual-curve fit at [Ab] 100 pM and 300 pM, hB7RP-1 titrated in solution
Protocol: (§4) Binding of 5D, 2H, and 2H germline antibodies was also tested using KinExA (kinetic exclusion assay) technology. In this assay, hB7RP-1 was coupled to agarose beads. The beads were used to create a bead column. Samples containing antibody at a fixed concentration, which were allowed to come to equilibrium with varying concentrations of hB7RP-1, were then passed over the bead column. Antibody not complexed with ligand bound to the coated beads.
(§5) A fluorescent tagged anti-human Fc secondary antibody was used to detect bound test antibody.

[11] = molecular target: T2, human B7RP-1 Ig2 (IgC-like) domain …; experiment: flow cytometry of biotin-coated beads capturing the avidin fusion protein, stained with fluorescently labelled antibody
[12] = molecular target: T4, soluble recombinant human B7RP-1; experiment: KinExA, hB7RP-1 on agarose beads, antibody equilibrated with hB7RP-1 in solution
Protocol: as §4, §5

[13] = molecular target: T2, human B7RP-1 Ig2 (IgC-like) domain …; experiment: avidin fusion on biotin-coated beads, fluorescently labeled 5D, flow cytometry
Protocol: as §1, §2

B1: ICOS-Fc fusion protein (Fc fusion, UniProt Q9Y6W8 21-140, looked up)
chain: EINGSANYEMFIFHNGGVQILCKYPDIVQQFKMQLLKGGQILCDLTKTKGSGNTVSIKSLKFCHSQLSNNSVSFFLYNLDHSHANYYFCNLSIFDPPPFKVTLTGGYLHIYESQLCCQLK
notes: Fluorescently labelled in the flow cytometry assays; also called ICOS reagent; not shown: Fc part
- Kd [1]: 1 nM
- binding result [2]: no binding
- CHO (co-stimulation assay with hB7RP1 transfected CHO cells, T cell proliferation) EC50 [3]: 10.7 nM

B2: anti-B7RP1 human monoclonal antibody 16H (antibody, V domains shown)
VH: EVQLVESGGGLVQPGGSLRLSCAGSGFTFSSYWMSWVRQAPGKGLEWVAYIKQDGNEKYYVDSVKGRFTISRDNAKKSLYLQMNSLRAEDTAVYYCAREGILWFGDLPTFWGQGILVTVSS
VL: DIQMTQSPSSLSASVGDRVTITCRASQGISNWLAWYQQKPEKAPKSLIYAASSLQSGVPSRFSGSGSGTDFTLTISSLQPEDFATYYCQQYDSYPRTFGQGTKVEIK
notes: Fluorescently labelled in the flow cytometry assays; also called 16H mAb; B7RP-1 16H
- Kd [4]: 0.027 nM
- Kd [5]: 0.027 nM
- Plate (co-stimulation assay, T cell proliferation) EC50 [6]: 0.053 nM
- CHO (co-stimulation assay with hB7RP1 transfected CHO cells, T cell proliferation) EC50 [3]: 0.276 nM
- Kd [7]: 1.9 nM
- binding result [8]: no binding
- Kd [9]: 1.9 nM

B3: anti-B7RP1 human monoclonal antibody 43H (antibody, V domains shown)
VH: EVQLVQSGGGLVHPGGSLRLSCAGSGFTFSSYAMHWVRQAPGKGLEWVSAIGAGGGTYYADSVKGRFTISRDNAKNSLYLQMNSLRAEDMAVYYCARVVVVVGFFDYWGQGTLVTVSS
VL: DIQMTQSPSSLSASVGDRVTITCRASQGISSWLAWYQQKPEKAPKSLIFAASSLQSGVPSRFSGSGSGTDFTLTISSLQPEDFATYYCQQYNSYPYTFGQGTKLEIK
- Plate (co-stimulation assay, T cell proliferation) EC50 [6]: 0.046 nM

B4: anti-B7RP1 human monoclonal antibody 2H germline (antibody, V domains shown)
VH: EVQLVESGGGLVQPGGSLRLSCAASGFTFSSYWMSWVRQAPGKGLEWVAYIKQDGSEKYYVDSVKGRFTISRDNAKNSLYLQMNSLRAEDTAVYYCARDGILWFGDIPTYWGQGTLVTVSS
VL: DIQMTQSPSSLSASVGDRVTITCRASQGISNWLAWYQQKPEKAPKSLIYTASSLQSGVPSRFSGSGSGTDFTLTISSLQPEDFATYYCQQYNSYPRTFGQGTKVEIK
- Kd [10]: 0.4 nM

B5: anti-B7RP1 human monoclonal antibody 16H germline (antibody, V domains shown)
VH: EVQLVESGGGLVQPGGSLRLSCAASGFTFSSYWMSWVRQAPGKGLEWVAYIKQDGNEKYYVDSVKGRFTISRDNAKNSLYLQMNSLRAEDTAVYYCAREGILWFGDLPTFWGQGTLVTVSS
VL: DIQMTQSPSSLSASVGDRVTITCRASQGISNWLAWYQQKPEKAPKSLIYAASSLQSGVPSRFSGSGSGTDFTLTISSLQPEDFATYYCQQYDSYPRTFGQGTKVEIK
- Kd [4]: 0.017 nM
- Kd [5]: 0.017 nM
- Plate (co-stimulation assay, T cell proliferation) EC50 [6]: 0.032 nM
- CHO (co-stimulation assay with hB7RP1 transfected CHO cells, T cell proliferation) EC50 [3]: 0.523 nM
- Kd [7]: 2.7 nM
- Kd [9]: 2.7 nM

B6: anti-B7RP1 human monoclonal antibody 41H (antibody, V domains shown)
VH: EVQLVESGGGLVQPGGSLRLSCAASGFTFSSYWMSWVRQAPGKGLEWVAYIKQDGSEKYYVDSVKGRFTISRDNAKNSLYLQMNSLRAEDTAVYYCARDGILWFGDLPTYWGQGTLVTVSS
VL: DIQMTQSPSSLSASVGDRVTITCRASQGISSWLAWYQQKPEKAPKSLIYAASSLQSGVPSRFSGSGSGTDFTLTISSLQPEDFATYYCQQYNTYPRTFGQGTKVEIK
- Plate (co-stimulation assay, T cell proliferation) EC50 [6]: 0.052 nM

B7: anti-B7RP1 human monoclonal antibody 2H (antibody, V domains shown)
VH: EVQLVESGGGLVQPGGSLRLSCVGSGFTFSSYWMSWVRQAPGKGLEWVAYIKQDGSEKYYVDSVKGRFTISRDNAKNSLYLQMNSLRAEDTAVYYCARDGILWFGDIPTYWGQGILVTVSS
VL: DIQMTQSPSSLSASVGDRVTITCRASQGISNWLAWYQQKPEKAPKSLIYTASSLQSGVPSRFSGSGSGTDFTLTISSLQPEDFATYYCQQYNSYPRTFGQGTKVEIK
- binding result [11]: no binding
- Kd [1]: 0.089 nM
- Plate (co-stimulation assay, T cell proliferation) EC50 [6]: 0.043 nM
- CHO (co-stimulation assay with hB7RP1 transfected CHO cells, T cell proliferation) EC50 [3]: 1.45 nM
- Kd [10]: 0.33 nM
- fold difference in KD against 5D [12]: ~10 fold

B8: anti-B7RP1 human monoclonal antibody 5D (antibody, V domains shown)
VH: QVQLVESGGGVVQPGRSLRLSCAASGFTFSSYGMHWVRQAPGKGLEWVAVIWYDGSKKYYADSVEGRFTISRDNSKNTLYLQMNSLRAEDTAVFYCARDLNIMVWGIFDYWGQGTLVTVSS
VL: EIVLTQSPATLSLSPGERATLSCRASQSVSSYLAWYQQKPGQAPRLLIYDASNRATGIPARFSGSGSGTDFTLTISSLEPEDFAVYYCQQRNNWPWTFGQGTKVEIK
notes: Fluorescently labelled in the flow cytometry assays; also called 5D mAb; B7RP-1 5D
- Kd [4]: 0.0016 nM
- Kd [5]: 0.0016 nM
- binding result [13]: no binding
- Plate (co-stimulation assay, T cell proliferation) EC50 [6]: 0.055 nM
- CHO (co-stimulation assay with hB7RP1 transfected CHO cells, T cell proliferation) EC50 [3]: 1.46 nM
- Kd [7]: 0.037 nM
- Kd [10]: 0.018 nM
- Kd [9]: 0.037 nM

B9: anti-B7RP1 human monoclonal antibody 15H (antibody, V domains shown)
VH: EVQLVQSGGGLVHPGGSLRLSCAGSGFTFSSYAMHWVRQAPGKGLEWVSAIGTGGGTYYADSVKGRFTISRDNAKNSLYLQMNSLRAEDMAMYYCAKSGVPLLWFGEFYWGQGTLVTVSS
VL: not shown
- Plate (co-stimulation assay, T cell proliferation) EC50 [6]: 0.036 nM

From patent US20080166352A1 (Amgen, published 2008)
